Legend:
[1] = target: C-terminally His-tagged human ECRG4(71–148) (human) (UniProt Q9H1Z8); test: SPR; ProteOn XPR36, GLM chip; His-tagged ECRG4 peptides captured by immobilised anti-His antibody; 2 × CTLD–Fc injected at 15.6–250 nM, 60 s association, 120 s dissociation; HBS (10 mM HEPES pH 7.4, 150 mM NaCl, 3 mM EDTA, 0.05% P20); Langmuir model
[2] = target: C-terminally His-tagged human ECRG4(71–132) (human) (UniProt Q9H1Z8); test: as above
[3] = target: C-terminally His-tagged human ECRG4(32–148) (human) (UniProt Q9H1Z8); test: as above
C-terminally His-tagged human ECRG4(32–148) (human), sequence (Q9H1Z8 32-148): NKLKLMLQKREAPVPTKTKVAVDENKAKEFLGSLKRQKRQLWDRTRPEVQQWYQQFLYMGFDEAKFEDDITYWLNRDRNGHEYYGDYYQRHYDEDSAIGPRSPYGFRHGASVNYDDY

LOX-1 (Homo sapiens) = LOX-1 (Homo sapiens) (UniProt P78380); conditions: cited from earlier work

C-terminally His-tagged human ECRG4(71–132) (human), sequence (Q9H1Z8 71-132): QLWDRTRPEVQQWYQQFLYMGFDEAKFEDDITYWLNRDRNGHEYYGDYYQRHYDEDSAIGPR
C-terminally His-tagged human ECRG4(71–148) (human), sequence (Q9H1Z8 71-148): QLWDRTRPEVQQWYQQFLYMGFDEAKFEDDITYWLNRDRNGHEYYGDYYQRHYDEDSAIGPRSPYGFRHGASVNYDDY
CRP, sequence (P02741 19-224): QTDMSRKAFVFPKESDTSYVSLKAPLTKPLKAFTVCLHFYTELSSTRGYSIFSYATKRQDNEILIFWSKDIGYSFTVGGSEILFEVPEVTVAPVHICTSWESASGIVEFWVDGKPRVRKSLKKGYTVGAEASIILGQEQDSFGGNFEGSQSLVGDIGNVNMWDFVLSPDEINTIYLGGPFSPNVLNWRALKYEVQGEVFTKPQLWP

Substance | Kd [1] [nM] | Kd [2] [nM] | Kd [3] [nM] | Kd (LOX-1 (Homo sapiens)) [nM]
2 × CTLD–Fc (two human LOX-1 CTLDs in tandem, Fc-fused) (Fc fusion) | 10 | 10 | 10 | –
CRP (from UniProt P02741) | – | – | – | 160

From paper PMC5840397
